Reference: patent publication US20160137746A1, “METHODS FOR TREATING HIGH CARDIOVASCULAR RISK PATIENTS WITH HYPERCHOLESTEROLEMIA” (Sanofi Biotechnology, priority 2014, published 2016)

Tested on: high cardiovascular risk patients with hypercholesterolemia
Assay: ODYSSEY LONG TERM: long-term safety and tolerability
[1] = alirocumab patients with two consecutive LDL-C <25 mg/dL (n = 562), pre-specified analysis
[2] = all alirocumab patients (n = 1550), pre-specified analysis

Method: Safety parameters (adverse events [including adjudicated cardiovascular events], laboratory data, vital signs, and ECG) were assessed throughout the study.
Safety endpoints assessed in this trial were: cardiovascular events; allergic events; local tolerability at injection site; other adverse events (including hemolytic anemia); laboratory tests: urinalysis, hematology (red blood cell count, red blood cell distribution width (RDW), reticulocyte count, hemoglobin, hematocrit, platelets, white blood cell count with differential blood count), standard chemistry (sodium, potassium, chloride, bicarbonate, calcium, phosphorous, urea nitrogen, creatinine, uric acid, total protein, albumin, LDH, γ Glutamyl Transferase [γGT]), Vitamin E (alpha tocopherol) and other Fat Soluble Vitamins, cortisol (and reflexive ACTH levels, as needed, followed by ACTH stimulation test, as needed), Gonadal Hormone Assessments, Hepatitis C antibody, liver panel (ALT, AST, ALP, and total bilirubin), and CPK; vital signs including heart rate and blood pressure; and 12-lead ECG.
The safety population included all randomized patients who received at least one dose or part of a dose of the double-blind IMP.
Safety analyses were descriptive, performed on the safety population according to treatment actually received. The safety analysis focused on the TEAE period defined as the time from the first dose of double-blind injection up to 70 days after the last double-blind injection. TEAE which developed, worsened or became serious or PCSA occurring after the patient's first injection in the open-label extension study (LTS13643) were not considered in the TEAE period. TEAE period was truncated at the common study cut-off date.

Alirocumab: human anti-PCSK9 antibody; HCVR SEQ ID NO:1, LCVR SEQ ID NO:6; CDRs SEQ ID NOs 2/3/4/7/8/10
TEAEs by System-Organ-Class: Investigations (lab parameters), % of patients [1]: 3.7% (21)
TEAEs by System-Organ-Class: Metabolism and nutrition disorders, % of patients [1]: 8.0% (45)
TEAEs by System-Organ-Class: Musculoskeletal and connective tissue disorders, % of patients [1]: 22.6% (127)
TEAEs by System-Organ-Class: Neoplasms, benign, malignant (incl cysts/polyps), % of patients [1]: 3.0% (17)
TEAEs by System-Organ-Class: Nervous system disorders, % of patients [1]: 11.2% (63)
TEAEs by System-Organ-Class: Psychiatric disorders, % of patients [1]: 4.3% (24)
TEAEs by System-Organ-Class: Renal and urinary disorders, % of patients [1]: 3.6% (20)
TEAEs by System-Organ-Class: Reproductive system and breast disorders, % of patients [1]: 2.0% (11)
TEAEs by System-Organ-Class: Respiratory, thoracic, and mediastinal disorders, % of patients [1]: 7.7% (43)
TEAEs by System-Organ-Class: Skin and subcutaneous tissue disorders, % of patients [1]: 6.9% (39)
TEAEs by System-Organ-Class: Vascular disorders, % of patients [1]: 5.0% (28)
TEAEs leading to discontinuation, % of patients [1]: 3.6% (20)
TEAEs, % of patients [1]: 71.9% (404)
Treatment-emergent SAEs, % of patients [1]: 14.6% (82)
AE of special interest: All adjudicated cardiovascular events, % of patients [2]: 4.0% (62)
AE of special interest: General allergic reaction events, % of patients [2]: 9.0% (140)
AE of special interest: Haemolytic anaemia, % (n) of patients [2]: 0
AE of special interest: Neurocognitive disorders, % of patients [2]: 1.2% (18)
AE of special interest: Neurological events, % of patients [2]: 4.2% (65)
AE of special interest: Ophthalmological events, % of patients [2]: 2.5% (38)
AE of special interest: Treament-emergent local injection site reactions, % of patients [2]: 5.8% (90)
Neurocognitive AE: Amnesia, % of patients [2]: 0.3% (5)
Neurocognitive AE: Any neurocognitive disorder, % of patients [2]: 1.2% (18)
Neurocognitive AE: Confusion postoperative, % of patients [2]: <0.1% (1)
Neurocognitive AE: Confusional state, % of patients [2]: 0.3% (4)
Neurocognitive AE: Dementia, % of patients [2]: <0.1% (1)
Neurocognitive AE: Disorientation, % of patients [2]: <0.1% (1)
Neurocognitive AE: Disturbance in attention, % of patients [2]: <0.1% (1)
Neurocognitive AE: Frontotemporal dementia, % of patients [2]: <0.1% (1)
Neurocognitive AE: Memory impairment, % of patients [2]: 0.3% (5)
Neurocognitive AE: Transient global amnesia, % of patients [2]: <0.1% (1)
TEAE ALT increase, % of patients [2]: 1.1%
TEAE AST increase, % of patients [2]: 0.2%
TEAE Angina pectoris, % of patients [2]: 2.1% (32)
TEAE Arthralgia, % of patients [2]: 4.5% (70)
TEAE Atrial fibrillation, % of patients [2]: 1.4% (22)
TEAE Back pain, % of patients [2]: 4.7% (73)
TEAE Bronchitis, % of patients [2]: 5.2% (80)
TEAE CPK increase, % of patients [2]: 0.5%
TEAE Cellulitis, % of patients [2]: 1.4% (22)
TEAE Confusion, % of patients [2]: 2.3% (35)
TEAE Constipation, % of patients [2]: 1.9% (30)
TEAE Cough, % of patients [2]: 3.2% (49)
TEAE Depression, % of patients [2]: 1.8% (28)
TEAE Diabetes in patients with history of diabetes (Company MedDRA Query "diabetes"), number as printed [2]: 48
TEAE Diabetes in patients with no history of diabetes (Company MedDRA Query "diabetes"), number as printed [2]: 19
TEAE Diarrhea, % of patients [2]: 5.3% (82)
TEAE Dizziness, % of patients [2]: 2.5% (38)
TEAE Fall, % of patients [2]: 2.8% (43)
TEAE Fatigue, % of patients [2]: 3.0% (47)
TEAE Gastoenteritis, % of patients [2]: 2.4% (37)
TEAE Headache, % of patients [2]: 4.8% (74)
TEAE Hypertension, % of patients [2]: 3.5% (54)
TEAE Influenza, % of patients [2]: 5.4% (84)
TEAE Injection site reaction, % of patients [2]: 5.7% (89)
TEAE Muscle spasms, % of patients [2]: 3.7% (58)
TEAE Musculoskeletal pain, % of patients [2]: 2.3% (36)
TEAE Myalgia, % of patients [2]: 4.9% (76)
TEAE Nasopharyngitis, % of patients [2]: 12.6% (196)
TEAE Nausea, % of patients [2]: 2.4% (37)
TEAE Non-cardiac chest pain, % of patients [2]: 1.8% (28)
TEAE Osteoarthritis, % of patients [2]: 2.3% (35)
TEAE Pain in extremity, % of patients [2]: 3.0% (46)
TEAE Rhinitis, % of patients [2]: 1.4% (22)
TEAE Sinusitis, % of patients [2]: 2.6% (40)
TEAE Type-2 diabetes mellitus, % of patients [2]: 1.7% (27)
TEAE leading to death, % of patients [2]: 0.5% (7)
TEAEs by System-Organ-Class: Blood and lymphatic system disorders, % of patients [2]: 2.4% (37)
TEAEs by System-Organ-Class: Cardiac disorders, % of patients [2]: 9.1% (141)
TEAEs by System-Organ-Class: Ear and labyrinth disorders, % of patients [2]: 2.0% (31)
TEAEs by System-Organ-Class: Eye disorders, % of patients [2]: 6.5% (100)
TEAEs by System-Organ-Class: Gastrointestinal disorders, % of patients [2]: 18.6% (288)
TEAEs by System-Organ-Class: General disorders and administration site conditions, % of patients [2]: 15.4% (238)
TEAEs by System-Organ-Class: Injury, poisoning, and procedural complications, % of patients [2]: 13.4% (207)
TEAEs by System-Organ-Class: Investigations (lab parameters), % of patients [2]: 6.1% (95)
TEAEs by System-Organ-Class: Metabolism and nutrition disorders, % of patients [2]: 9.1% (141)
TEAEs by System-Organ-Class: Musculoskeletal and connective tissue disorders, % of patients [2]: 27.2% (422)
TEAEs by System-Organ-Class: Neoplasms, benign, malignant (incl cysts/polyps), % of patients [2]: 2.5% (38)
TEAEs by System-Organ-Class: Nervous system disorders, % of patients [2]: 17.0% (264)
TEAEs by System-Organ-Class: Psychiatric disorders, % of patients [2]: 5.9% (91)
TEAEs by System-Organ-Class: Renal and urinary disorders, % of patients [2]: 4.6% (72)
TEAEs by System-Organ-Class: Reproductive system and breast disorders, % of patients [2]: 2.5% (38)
TEAEs by System-Organ-Class: Respiratory, thoracic, and mediastinal disorders, % of patients [2]: 11.0% (171)
TEAEs by System-Organ-Class: Skin and subcutaneous tissue disorders, % of patients [2]: 9.1% (141)
TEAEs by System-Organ-Class: Vascular disorders, % of patients [2]: 7.9% (122)
TEAEs leading to discontinuation, % of patients [2]: 6.2% (96)
TEAEs, % of patients [2]: 78.6% (1218)
Treatment-emergent SAEs, % of patients [2]: 16.5% (255)
Injection-site reactions (final analysis): 5.9%
Myalgia (final analysis): 5.4%
Neurocognitive events (final analysis): 1.2%
Ophthalmological events (final analysis): 2.9%
Patients with two consecutive calculated LDL cholesterol levels of less than 25 mg/dL (575 patients) (final analysis): 38%
Treatment-emergent adverse events (final analysis): 81%
Treatment-emergent adverse events leading to study-drug discontinuation (final analysis): 7.2%
Alanine aminotransferase > 3 × ULN, % of patients (pre-specified analysis): 1.6%
Alanine aminotransferase > 3 × ULN, n/N of patients (pre-specified analysis): 25/1532
Aspartate aminiotransferase >3 × ULN, % of patients (pre-specified analysis): 1.2%
Aspartate aminiotransferase >3 × ULN, n/N of patients (pre-specified analysis): 19/1532
Creatine kinase > 3 × ULN, % of patients (pre-specified analysis): 3.3%
Creatine kinase > 3 × ULN, n/N of patients (pre-specified analysis): 50/1507
Deaths reported during the study (pre-specified analysis): 11 (0.7%) n (%)
Diarrhea (TEAE preferred term) (pre-specified analysis): 5.3%
Headache (TEAE preferred term) (pre-specified analysis): 4.8%
Hemolytic anaemia (pre-specified analysis): No case
Influenza (TEAE preferred term) (pre-specified analysis): 5.4%
Injection site reaction (TEAE preferred term) (pre-specified analysis): 5.7%
Nasopharyngitis (TEAE preferred term) (pre-specified analysis): 12.6%
Neurocognitive disorders (pre-specified analysis): 18 (1.2%) n (%)
Patients with LDL-C <25 mg/dL in two or more consecutive periods, share of population treated with alirocumab (562 out of 1550) (pre-specified analysis): 36.3%
Patients with impaired glucose control at baseline defined as diabetic in the TEAE period (pre-specified analysis): 36 (6.3%) n (%)
Patients with two consecutive calculated LDL-C values <25 mg/dL (<0.65 mmo/L) (pre-specified analysis): 562 (37.4%) n (%)
SOC gastrointestinal disorders (pre-specified analysis): 18.6%
SOC general disorders and administration site conditions (pre-specified analysis): 15.4%
SOC injury, poisoning and procedural complications (pre-specified analysis): 13.4%
SOC musculoskeletal and connective tissue disorders (pre-specified analysis): 27.2%
SOC nervous system disorders (pre-specified analysis): 17.0%
SOC respiratory, thoracic and mediastinal disorders (pre-specified analysis): 11.0%
Safety in patients with two consecutive calculated LDL-C <25 mg/dL (pre-specified analysis): No particular safety concern
TEAE leading to death (pre-specified analysis): 7 (0.5%) n (%)
Time to first injection site reaction (pre-specified analysis): 57 days
Treatment-emergent local injection site reaction (pre-specified analysis): 90 (5.8%) n (%)
